# Experimental data from publication PMC2694808.
# Values joined by “and” are separate entries in the source; they are usually repeats but may differ in a detail not shown here. Identical values can stand only once.
# System: Hfq
# Experiment: EMSA
# Conditions: 40 or 100 mM NH4Cl, 10 mM Tris-HCl pH 7.5, 5 mM Mg acetate, 0.1 mM DTT, 37°C (EMSA 10 min; SPR Biacore 2000)
substance,measurement,value
invE RNA probe (140 nt),K half,1.7 nM and 6.2 nM
